From the Human Domainome abundance scans (Beltran et al. 2025)

B1: Peripheral plasma membrane protein CASK, residues 488 to 569; numbered along this chain, O14936 (parent)
chain: VRLVQFQKNTDEPMGITLKMNELNHCIVARIMHGGMIHRQGTLHVGDEIREINGISVANQTVEQLQKMLREMRGSITFKIVP

Variants of: B1
Assay: abundance fitness (aPCA) (normalised: wild type 0, dead -1); higher = more abundant; growth selection in yeast, the domain comes from the species named
Settings: Homo sapiens

Abundance fitness: each site, then its substitutions
Q40: I -0.05, E 0.018, A -0.016, T -0.067, S -0.043, V -0.065, G -0.097, N -0.007, F -0.103, C -0.072, P -0.552, H -0.096, L -0.06, M -0.055
H33: R -0.006, Q 0.045, C -0.033, Y -0.107, M -0.026, S -0.008, W -0.16, V 0.003, E 0.066, K 0.01, T 0.005, P 0.009, I -0.006, G -0.054, D -0.011, F -0.102, L -0.119
H44: S -0.007, E 0.02, C -0.012, M -0.024, N -0.029, K 0.007, A -0.006, F -0.125, I -0.188, Q -0.006, L -0.142, P -0.917, T -0.039, W -0.281, D -0.021, Y -0.075
E48: C -0.017, I -0.073, M -0.158, D -0.108, A -0.105, K -0.19, N -0.326, H -0.108, F -0.362, L -0.161
R39: C -0.156, I -0.297, A -0.035, F -0.34, G -0.136, M -0.135, D -0.096, P -0.469, H -0.118, V -0.197, T -0.07, L -0.138, E -0.052, S -0.047, N 0.04, Q -0.024, Y -0.35
I31: A -0.647, P -0.791, S -0.859, Y -0.579, F -0.331, L -0.058, N -0.71, K -0.93, R -0.869, E -0.777, D -0.61, W -0.847, G -1, H -0.779, Q -1.04, V -0.057
I37: C -0.024, A 0.019, P -0.42, E -0.378, T -0.129, N -0.391, M -0.021, S -0.217, G -0.276, Y -0.38, Q -0.43, W -0.333, L -0.103, R -0.531, F -0.092, H -0.294
H38: W -0.029, E 0.048, A -0.028, C -0.129, Y -0.076, T -0.313, L -0.348, P -0.103, N -0.138, S -0.052, D -0.043, Q 0.024, I -0.295, F -0.057, R -0.209, G -0.091, K -0.138
M36: Y 0.066, E 0.009, D -0.044, S 0.049, L 0.025, I 0.029, F 0.119, V 0, Q -0.014, C -0.07, T 0.006, N -0.07, R -0.092, W 0.068, A 0.039, H 0.075, G -0.05, P 0.095
G35: I -0.843, D -0.236, P -0.549, S 0.027, Y -0.134, W -0.422, F -0.243, T -0.013, C -0.066, M -0.128, A -0.098, R -0.278, E -0.187, V -0.485, L -0.268, N -0.28, H -0.068
L43: N -0.906, M -0.021, R -0.853, G -0.985, P -0.658, S -0.755, F 0.052, Q -1.01, E -0.774
